Experimental data from US7981652B2, “Modified cytochrome P450 monooxygenases” (BASF Aktiengesellschaft, priority 1999, dated 2011).

Assays:
[1] = pNCA enzyme activity assay, substrate 15-pNCA; format: biochemical
Description: (§1) For the pNCA activity assay use was made of 8 μl of a 10 mM pNCA solution in DMSO in a disposable cell in an end volume of 1 ml. After 850 μl of Tris/HCl buffer (0.1 M, pH 8.2) and 0.1 to 0.4 nmol P450 had been added to the pNCA/DMSO solution in question, the samples were preincubated for 5 minutes before the reaction was started by adding 50 μl of an aqueous solution of […]. To determine Kcat and Km, a concentration series was established for the various pNCA substrates (regarding details of the detection method, see (12)).
(§2) A 96-well plate (Greiner, Frickenhausen, Germany) was used for carrying out the pNCA test in a microtiter plate. In a total reaction volume of 250 μl in Tris/HCl buffer (0.1 M, pH 8.2), the reaction batch contained either 60 nmol 8-pNCA, 15 nmol 10-pNCA, 15 nmol 12-pNCA or 15 nmol 15-pNCA, in each case dissolved in 2.5 μl of DMSO. After the samples had been preincubated for 5 minutes with 40 μl of P450 BM-3 samples, the reaction was started by injecting, into each well, 30 μl of a 1 mM NADPH solution. Immediately after the NADPH solution had been added, the plates were measured in a plate reader at 405 nm.

[2] = pNCA enzyme activity assay, substrate 12-pNCA; format: biochemical
Description: as §1, §2

[3] = pNCA enzyme activity assay, substrate 10-pNCA; format: biochemical
Description: as §1, §2

[4] = pNCA enzyme activity assay, substrate 8-pNCA; format: biochemical
Description: as §1, §2

[5] = Hydroxylation of lauric acid with P450 BM-3 mutants, GC analysis of products; format: biochemical
Description: The following batch was chosen to hydroxylate the fatty acids in the presence of P450 BM-3 or its mutants:
Prior to the reaction, the enzyme lyophilisate was dissolved in 1 ml of reaction buffer and first incubated for 30 minutes at 36° C. Like the addition of 2% v/v acetone, the incubation leads to an increase in activity of 60 and 75%, respectively.
After 5 minutes' incubation, 500 μl of the previously prepared NADPH solution (12.5 mg/ml) were added. The course of the reaction is monitored by absorption measurements at 340 nm, and the consumption of NADPH can be observed. Theoretically 4 ml of NADPH solution would be required for a stoichiometric conversion, however, an unduly high NADPH concentration in the reaction solution results in inactivation of the enzyme, which is why the cofactor is added in 500 μl steps.
After the reaction had ended, the solution was acidified with 5M hydrochloric acid to a pH of 2. The fatty acids or hydroxylated fatty acids precipitate during this and result in a noticeable cloudiness of the solution. Thereafter, the mixture was extracted twice with in each case 10 ml of dichloromethane and dried over sodium sulfate. After filtration through a folded filter, the dichloromethane was removed on a rotary evaporator or by evaporation with nitrogen. The white solid which remained was taken up in 2 ml of dichloromethane and used in the GC analysis.
A Fisons gas chromatograph (Fisons Instruments Mega Series, Mainz, Germany) equipped with FID was used for the analysis (Optima 5-column, internal diameter 25 m×0.25 mm, Macherey & Nagel, Düren, Germany).
For analysis, starting materials and products were silylated with MSHFBA. During this, all hydroxyl and acid groups are converted into the corresponding trimethylsilyl ethers and esters, respectively. Care must be taken that the sample is anhydrous since otherwise side reactions with the silylating agent result. 15 μl of MSHFBA were pipetted into 10 μl of the hydroxy-fatty-acid-containing dichloromethane solution and the mixture was incubated for 15 minutes at room temperature. After 25 μl of dichloromethane had been added, the GC analysis was carried out.
To this end, 1 μl of the silylated samples were injected into the gas chromatograph. Injector and detector temperature were 350° C. The following temperature programmes were used:
To determine the reaction yields, gas chromatograms of standards were recorded. […] These ion fluxes are not proportional to the quantitative ratio of starting material and product. […] The empirical formulae of the standards and of the products are identical, and the structure only differs with regard to the position of the hydroxyl group, which is why approximately identical detectable ion fluxes can be assumed for identical quantities.

[6] = from reference (12); cited from earlier work
[7] = from reference (1); cited from earlier work

B1: WT: wild-type cytochrome P450 monooxygenase BM-3 from Bacillus megaterium, SEQ ID NO:2 (protein, listed as Bacillus megaterium)
chain: TIKEMPQPKTFGELKNLPLLNTDKPVQALMKIADELGEIFKFEAPGRVTRYLSSQRLIKEACDESRFDKNLSQALKFVRDFAGDGLFTSWTHEKNWKKAHNILLPSFSQQAMKGYHAMMVDIAVQLVQKWERLNADEHIEVPEDMTRLTLDTIGLCGFNYRFNSFYRDQPHPFITSMVRALDEAMNKLQRANPDDPAYDENKRQFQEDIKVMNDLVDKIIADRKASGEQSDDLLTHMLNGKDPETGEPLDDENIRYQIITFLIAGHETTSGLLSFALYFLVKNPHVLQKAAEEAARVLVDPVPSYKQVKQLKYVGMVLNEALRLWPTAPAFSLYAKEDTVLGGEYPLEKGDELMVLIPQLHRDKTIWGDDVEEFRPERFENPSAIPQHAFKPFGNGQRACIGQQFALHEATLVLGMMLKHFDFEDHTNYELDIKETLTLKPEGFVVKAKSKKIPLGGIPSPSTEQSAKKVRKKAENAHNTPLLVLYGSNMGTAEGTARDLADIAMSKGFAPQVATLDSHAGNLPREGAVLIVTASYNGHPPDNAKQFVDWLDQASADEVKGVRYSVFGCGDKNWATTYQKVPAFIDETLAAKGAENIADRGEADASDDFEGTYEEWREHMWSDVAAYFNLDIENSEDNKSTLSLQFVDSAADMPLAKMHGAFSTNVVASKELQQPGSARSTRHLEIELPKEASYQEGDHLGVIPRNYEGIVNRVTARFGLDASQQIRLEAEEEKLAHLPLAKTVSVEELLQYVELQDPVTRTQLRAMAAKTVCPPHKVELEALLEKQAYKEQVLAKRLTMLELLEKYPACEMKFSEFIALLPSIRPRYYSISSSPRVDEKQASITVSVVSGEAWSGYGEYKGIASNYLAELQEGDTITCFISTPQSEFTLPKDPETPLIMVGPGTGVAPFRGFVQARKQLKEQGQSLGEAHLYFGCRSPHEDYLYQEELENAQSEGIITLHTAFSRMPNQPKTYVQHVMEQDGKKLIELLDQGAHFYICGDGSQMAPAVEATLMKSYADVHQVSEADARLWLQQLEEKGRYAKDVWAG
[1]
  Specific activity: 405 nmol/min/nmol P450
[2]
  Specific activity: 141 nmol/min/nmol P450
[3]
  Specific activity: 339 nmol/min/nmol P450
[4]
  Specific activity: 15 nmol/min/nmol P450
[5]; lauric acid
  positions in which the enzyme is active: only active in the positions w-1, w-2 and w-3
[5]; lauric acid (C12)
  Hydroxylation position ω-1, share of products: 38%
  Hydroxylation position ω-2, share of products: 28%
  Hydroxylation position ω-3, share of products: 34%
[6]
  conversion of 12-pNCA (ω-hydroxylation): 33%
[7]
  catalytic activity for fatty acids with a chain length of less than 12 carbon atoms: no catalytic activity
